Source: publication PMC5241945, “A new enzyme-linked immunosorbent assay (ELISA) for human free and bound kallikrein 9” (Clinical Proteomics, 2017)

Molecular target: T1, human recombinant serpinA3 inhibitor (R&D systems) (human, UniProt P01011 24-423)
T1 construct: alpha-1-antichymotrypsin (serpinA3), human, recombinant; also called a1-antichymotrypsin; ACT; source: bought: R&D Systems
T1 sequence (looked up): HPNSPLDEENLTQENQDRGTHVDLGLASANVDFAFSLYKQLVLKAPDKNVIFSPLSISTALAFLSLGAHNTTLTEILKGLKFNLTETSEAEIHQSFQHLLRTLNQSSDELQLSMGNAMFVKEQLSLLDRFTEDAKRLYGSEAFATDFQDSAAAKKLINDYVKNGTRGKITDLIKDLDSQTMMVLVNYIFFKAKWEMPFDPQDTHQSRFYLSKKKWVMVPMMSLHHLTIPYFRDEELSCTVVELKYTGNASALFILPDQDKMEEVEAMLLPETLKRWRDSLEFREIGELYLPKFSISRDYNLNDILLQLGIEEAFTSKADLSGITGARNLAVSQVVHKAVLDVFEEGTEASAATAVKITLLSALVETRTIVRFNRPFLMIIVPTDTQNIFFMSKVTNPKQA
Experiment: ELISA; mat-KLK9 (0.5 μg) incubated alone or with recombinant serpinA3 at molar ratios KLK9/serpinA3 1/0.2, 1/0.5, 1/1 and 1/2 in 50 mM Tris-HCl pH 8.0, 1 h, 37 °C; the free KLK9 left was then measured by the sandwich ELISA (28ED436 / biotinylated 4ED28.2) as % recovery against the control without inhibitor
Conditions: both partners purified

- binding result: binds
B1: mature form of KLK9 (mat-KLK9) (aa 23–250), recombinant (enzyme, human, UniProt Q9UKQ9 23-250, looked up)
chain: AIGAEECRPNSQPWQAGLFHLTRLFCGATLISDRWLLTAAHCRKPYLWVRLGEHHLWKWEGPEQLFRVTDFFPHPGFNKDLSANDHNDDIMLIRLPRQARLSPAVQPLNLSQTCVSPGMQCLISGWGAVSSPKALFPVTLQCANISILENKLCHWAYPGHISDSMLCAGLWEGGRGSCQGDSGGPLVCNGTLAGVVSGGAEPCSRPRRPAVYTSVCHYLDWIQEIMEN
notes: Human tissue kallikrein 9 (KLK9), UniProt Q9UKQ9 (KLK9_HUMAN); mature form aa 23-250 of the pre-pro-enzyme (1-250), lacking the signal peptide and the pro-segment; Glycosylated: migrates at ~42 kDa, ~25 kDa after PNGase F; also called mature KLK9; kallikrein 9
